T1: AP2-G D1 (Plasmodium falciparum, UniProt Q8I5I9 2123-2245)
T1 sequence: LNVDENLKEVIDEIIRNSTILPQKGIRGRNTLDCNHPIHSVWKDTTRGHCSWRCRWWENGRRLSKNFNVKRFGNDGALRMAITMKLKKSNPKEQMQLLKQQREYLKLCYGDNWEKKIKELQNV

B1: XGTACX_site8426 (dsDNA)
DNA 1: TAATATTTATAATAGTGTACACAATTATAAACTGAA
DNA 2: TTCAGTTTATAATTGTGTACACTATTATAAATATTA
B2: XGTACX_site5031 (dsDNA)
DNA 1: ACATTATATAAAATATGTACACATAAATAAATAAAT
DNA 2: ATTTATTTATTTATGTGTACATATTTTATATAATGT
B3: XGTACX_site6063 (dsDNA)
DNA 1: ATGCATATATTTATGTGTACATATATTTGTAGGGGG
DNA 2: CCCCCTACAAATATATGTACACATAAATATATGCAT
B4: XGTACX_site2346 (dsDNA)
DNA 1: TTAATAATAAAAAGGAGTACACTAATATACTATAAA
DNA 2: TTTATAGTATATTAGTGTACTCCTTTTTATTATTAA
B5: XGTACX_site2541 (dsDNA)
DNA 1: ACAGCTACCAGATACTGTACTTTTCTCCAGACTGCA
DNA 2: TGCAGTCTGGAGAAAAGTACAGTATCTGGTAGCTGT
B6: XGTACX_site2641 (dsDNA)
DNA 1: TATATATATTTAAGGTGTACATAAATAACAAAATAT
DNA 2: ATATTTTGTTATTTATGTACACCTTAAATATATATA
B7: XGTACX_site2257 (dsDNA)
DNA 1: CAAAATATACACACGTGTACACAAATATTTACAAAA
DNA 2: TTTTGTAAATATTTGTGTACACGTGTGTATATTTTG
B8: XGTACX_site5662 (dsDNA)
DNA 1: TTATTCTAAAAAGGGTGTACACAAACGAATGGAAAA
DNA 2: TTTTCCATTCGTTTGTGTACACCCTTTTTAGAATAA
B9: XGTACX_site7234 (dsDNA)
DNA 1: ATTTCCTTTTTCTGTTGTACTCATAAAATAATATGT
DNA 2: ACATATTATTTTATGAGTACAACAGAAAAAGGAAAT
B10: XGTACX_site3752 (dsDNA)
DNA 1: TAAAAAAAAAAAAAAAGTACACACATACATATAAAT
DNA 2: ATTTATATGTATGTGTGTACTTTTTTTTTTTTTTTA
B11: XGTACX_site1238 (dsDNA)
DNA 1: ATGTGCACATATAAAAGTACACGCACATATATATAT
DNA 2: ATATATATATGTGCGTGTACTTTTATATGTGCACAT
B12: XGTACX_site6064 (dsDNA)
DNA 1: TAAAACATATAAAGGTGTACGCCTTTTTGTATCAAT
DNA 2: ATTGATACAAAAAGGCGTACACCTTTATATGTTTTA
B13: XGTACX_site6448 (dsDNA)
DNA 1: AATTTATATGTTTTGTGTACACAATTTATTAAATTA
DNA 2: TAATTTAATAAATTGTGTACACAAAACATATAAATT
B14: XGTACX_site6504 (dsDNA)
DNA 1: TGAAAAGATAAAAAAAGTACACACACACATATATAT
DNA 2: ATATATATGTGTGTGTGTACTTTTTTTATCTTTTCA
B15: XGTACX_site3178 (dsDNA)
DNA 1: CTTGAAAGATTTTATTGTACTCATAAGATACATTTC
DNA 2: GAAATGTATCTTATGAGTACAATAAAATCTTTCAAG
B16: XGTACX_site8830 (dsDNA)
DNA 1: AAATGCTAAAAATAGAGTACAGATAACGAAAAGTGT
DNA 2: ACACTTTTCGTTATCTGTACTCTATTTTTAGCATTT
B17: XGTACX_site6582 (dsDNA)
DNA 1: TTTCATTTTTTTACATGTACGCAAAAGTGTGTAGTT
DNA 2: AACTACACACTTTTGCGTACATGTAAAAAAATGAAA
B18: XGTACX_site8545 (dsDNA)
DNA 1: TTACACATGTTTAACTGTACACATAATAGCAATATT
DNA 2: AATATTGCTATTATGTGTACAGTTAAACATGTGTAA
B19: XGTACX_site6677 (dsDNA)
DNA 1: TTGTATTTCCTTAGGAGTACACATAAATAAGTAAAT
DNA 2: ATTTACTTATTTATGTGTACTCCTAAGGAAATACAA
B20: XGTACX_site1983 (dsDNA)
DNA 1: GTTTGGTGGTGTTTTGGTACGTACGGGGGGGTATGT
DNA 2: ACATACCCCCCCGTACGTACCAAAACACCACCAAAC
B21: XGTACX_site3050 (dsDNA)
DNA 1: ATATAATTTTTCAAGTGTACTTTTTTTTTTTAACAT
DNA 2: ATGTTAAAAAAAAAAAGTACACTTGAAAAATTATAT
B22: XGTACX_site2176 (dsDNA)
DNA 1: CTTCTTATTTTCTAATGTACGTACAAATCATTTATA
DNA 2: TATAAATGATTTGTACGTACATTAGAAAATAAGAAG
B23: XGTACX_site882 (dsDNA)
DNA 1: TTTTCTTTTTTGAACTGTACGCGTAAATTTAAAAAG
DNA 2: CTTTTTAAATTTACGCGTACAGTTCAAAAAAGAAAA
B24: XGTACX_site622 (dsDNA)
DNA 1: CTTTGTGTTAAAAGTAGTACACCAAAAATATGACTT
DNA 2: AAGTCATATTTTTGGTGTACTACTTTTAACACAAAG
B25: XGTACX_site366 (dsDNA)
DNA 1: TAATATTTCATTAGGTGTACACTACATAGTAGTAGA
DNA 2: TCTACTACTATGTAGTGTACACCTAATGAAATATTA
B26: XGTACX_site7594 (dsDNA)
DNA 1: AGACGTAATAATTGTTGTACATAAAAAAATAAGAAA
DNA 2: TTTCTTATTTTTTTATGTACAACAATTATTACGTCT
B27: XGTACX_site930 (dsDNA)
DNA 1: ATACATATTAATATGTGTACACATTTTTATTTTTTT
DNA 2: AAAAAAATAAAAATGTGTACACATATTAATATGTAT
B28: XGTACX_site4322 (dsDNA)
DNA 1: TTACGATACTTTAGGTGTACACAAATATACATGAAT
DNA 2: ATTCATGTATATTTGTGTACACCTAAAGTATCGTAA
B29: XGTACX_site4360 (dsDNA)
DNA 1: GATTAAAATCAAAGGTGTACGCACAAATAAGTCCCA
DNA 2: TGGGACTTATTTGTGCGTACACCTTTGATTTTAATC
B30: XGTACX_site3357 (dsDNA)
DNA 1: AATATCCACATTAGGAGTACACAGCTAACTGTTTGA
DNA 2: TCAAACAGTTAGCTGTGTACTCCTAATGTGGATATT
B31: XGTACX_site17 (dsDNA)
DNA 1: TTTTACAAATATTACTGTACACATTTTCATATAATT
DNA 2: AATTATATGAAAATGTGTACAGTAATATTTGTAAAA
B32: XGTACX_site8253 (dsDNA)
DNA 1: TTTTATGAAAAGATGAGTACACAATACTTTTTAATT
DNA 2: AATTAAAAAGTATTGTGTACTCATCTTTTCATAAAA
B33: XGTACX_site8843 (dsDNA)
DNA 1: ATAATTATTTTCCCGTGTACTTATTTTTTTCAAGTA
DNA 2: TACTTGAAAAAAATAAGTACACGGGAAAATAATTAT
B34: XGTACX_site4032 (dsDNA)
DNA 1: TTCATTTTTTATTATAGTACACATAATATTTGCAGA
DNA 2: TCTGCAAATATTATGTGTACTATAATAAAAAATGAA
B35: XGTACX_site206 (dsDNA)
DNA 1: TGTTTATACATCAGGTGTACGCAAAATAATTGTATG
DNA 2: CATACAATTATTTTGCGTACACCTGATGTATAAACA
B36: XGTACX_site5245 (dsDNA)
DNA 1: AAAAACAAAATTTGGAGTACAGTTATAATATTATTA
DNA 2: TAATAATATTATAACTGTACTCCAAATTTTGTTTTT
B37: XGTACX_site5322 (dsDNA)
DNA 1: TATATATATATATGTAGTACTTTACAAAATAATTCG
DNA 2: CGAATTATTTTGTAAAGTACTACATATATATATATA
B38: XGTACX_site8781 (dsDNA)
DNA 1: TAAATAAATTTGCACTGTACGCAAAAAAAAAAAAGA
DNA 2: TCTTTTTTTTTTTTGCGTACAGTGCAAATTTATTTA
B39: XGTACX_site7381 (dsDNA)
DNA 1: TATCTTTATATATAGTGTACACATTAAACAAATCTC
DNA 2: GAGATTTGTTTAATGTGTACACTATATATAAAGATA
B40: XGTACX_site3287 (dsDNA)
DNA 1: TTTTACAATATTTTGTGTACTTATATTATGAGCTTA
DNA 2: TAAGCTCATAATATAAGTACACAAAATATTGTAAAA
B41: XGTACX_site5339 (dsDNA)
DNA 1: TATTTTTTACATTCGTGTACGCATTTTTGTGAATTT
DNA 2: AAATTCACAAAAATGCGTACACGAATGTAAAAAATA

This data set addresses T1, AP2-G D1. The data set is described as follows: gcPBM; about 25 ug protein; PBS, 1% milk, 0.2 mg/ml BSA, salmon testes DNA, 0.03% Triton X-100. Conditions: tags: N-terminal GST (pGEX-4T-1), kept; label: surface-attached array probe.
For the molecule B1, the binding signal was 12.7 ln median PBM intensity, better of two orientations. In the case of B2 it was 12.7 ln median PBM intensity, better of two orientations; in that of B3, 12.6 ln median PBM intensity, better of two orientations; in that of B4, 12.7 ln median PBM intensity, better of two orientations.

Regarding B5, the binding signal is 12.6 ln median PBM intensity, better of two orientations. The result for B6 reads 12.3 ln median PBM intensity, better of two orientations. The result for B7 reads 12.6 ln median PBM intensity, better of two orientations; that for B8, 12.6 ln median PBM intensity, better of two orientations; that for B9, 12.2 ln median PBM intensity, better of two orientations.

With B10, the binding signal was 12.7 ln median PBM intensity, better of two orientations.

With B11, the binding signal is 12.6 ln median PBM intensity, better of two orientations. The result for B12 reads 12.6 ln median PBM intensity, better of two orientations.

For the molecule B13, the binding signal is 12.6 ln median PBM intensity, better of two orientations. The result for B14 reads 12.7 ln median PBM intensity, better of two orientations. In the case of B15 it was 12.7 ln median PBM intensity, better of two orientations. On to B16, for which the binding signal is 12.1 ln median PBM intensity, better of two orientations. In the case of B17 it was 12.6 ln median PBM intensity, better of two orientations; in that of B18, 12.2 ln median PBM intensity, better of two orientations. In the case of B19 it was 12.7 ln median PBM intensity, better of two orientations; in that of B20, 12.7 ln median PBM intensity, better of two orientations; in that of B21, 12.7 ln median PBM intensity, better of two orientations. In the case of B22 it was 12.6 ln median PBM intensity, better of two orientations.

With B23, the binding signal was 12.7 ln median PBM intensity, better of two orientations.

For B24, the binding signal was 12.7 ln median PBM intensity, better of two orientations. In the case of B25 it was 12.2 ln median PBM intensity, better of two orientations; in that of B26, 12.1 ln median PBM intensity, better of two orientations. Take B27: the binding signal was 12.6 ln median PBM intensity, better of two orientations.

B28: the binding signal was 12.6 ln median PBM intensity, better of two orientations. As to B29, the binding signal was 12.7 ln median PBM intensity, better of two orientations. As to B30, the binding signal was 12.6 ln median PBM intensity, better of two orientations. The result for B31 reads 12.2 ln median PBM intensity, better of two orientations; that for B32, 12.7 ln median PBM intensity, better of two orientations. The result for B33 reads 12.6 ln median PBM intensity, better of two orientations; that for B34, 12.3 ln median PBM intensity, better of two orientations; that for B35, 12.7 ln median PBM intensity, better of two orientations. B36: the binding signal is 12.7 ln median PBM intensity, better of two orientations.

On to B37, for which the binding signal is 12.1 ln median PBM intensity, better of two orientations.

Regarding B38, the binding signal was 12.6 ln median PBM intensity, better of two orientations. In the case of B39 it was 12.4 ln median PBM intensity, better of two orientations; in that of B40, 12.2 ln median PBM intensity, better of two orientations; in that of B41, 12.7 ln median PBM intensity, better of two orientations.

Values taken from article PMC11417369, “DNA sequence and chromatin differentiate sequence-specific transcription factor binding in the human malaria parasite Plasmodium falciparum”.
